Source: PMC10858482, “Computational design and engineering of self-assembling multivalent microproteins with therapeutic potential against SARS-CoV-2” (Journal of Nanobiotechnology, 2024)

Molecular target: T1, RBD of the S protein of SARS-CoV-2 (Omicron BA.1) (SARS-CoV-2 Omicron BA.1, strain)
T1 construct: also called RBD (Omicron BA.1)
Assay: BLI; Octet RED96e; RBD (Omicron BA.1) immobilised on streptavidin (SA) biosensors; analyte 500-31.25 nM Nb67 or 100-3.125 nM Tr67 in 1x PBS, 0.02% Tween-20, 0.1% BSA; association 1 min, dissociation 3 min; 1:1 binding model
Settings: both partners purified

B1: nanobody Nb67 (VHH)
VHH: EVQLVESGGGLVQTGGSLRLSCALSGYTFSIFPTAWFRQAPGKEREFVAGIRWNGSTRDYTEYADFVKGRFTISRDNAKNMVYLQMISLKPEDTALYYCAASDGVIDGTNANAYRYWGQGTQVTVSS
notes: also called monovalent Nb67
**Q.** How did the Kd turn out when B1 was run?
**A.** 0.0152 µM
